Bridge positions count the residues as written; N and C are the ends. Square brackets hold non-standard residues; d marks the D form. Peptide text beside a SMILES is read from it. * marks the point of attachment. X1 = O=C(O)CN1CCN(CC(=O)O)CCN(CC(=O)NCCN2C(=O)CC(*)C2=O)CCN(CC(=O)O)CC1; Ahx = NCCCCCC(=O)O
What was measured:
in vivo = experiment: in vivo; set-up: species or system Sprague-Dawley rats; conditions: Sprague-Dawley, rat, iv, total radioactivity
Procedure: Given this encouraging in vitro result, the tissue distribution of both conjugates in normal Sprague-Dawley rats was examined. […] The radiolabeled compounds were diluted with saline and be injected into rats (n=4 at each time point) via the tail vein. The animal number at each time point was chosen for statistical analysis. […] At the selected post-injection time points, animals were sacrificed, and organs of interest removed, weighed, and counted. The percent injected dose per gram (% ID/g) and percent injected dose per organ (% ID/organ) was calculated by comparison to a weighed, counted standard. Pharmacokinetic parameters were estimated by using either one- or two-compartment model.

GLP-1R = GLP-1R (Homo sapiens, UniProt P43220); experiment: cAMP accumulation in HEK293 cells stably expressing GLP-1R-GFP; format: cell-based; set-up: GFP; expressed in transfected cells; host or cells: HEK293
Source text: In all cases, reactions were stopped with 1.2 M trichloroacetic acid and cAMP was isolated by the two column chromatographic method.

Chain of GLP-1R (P43220 24-463): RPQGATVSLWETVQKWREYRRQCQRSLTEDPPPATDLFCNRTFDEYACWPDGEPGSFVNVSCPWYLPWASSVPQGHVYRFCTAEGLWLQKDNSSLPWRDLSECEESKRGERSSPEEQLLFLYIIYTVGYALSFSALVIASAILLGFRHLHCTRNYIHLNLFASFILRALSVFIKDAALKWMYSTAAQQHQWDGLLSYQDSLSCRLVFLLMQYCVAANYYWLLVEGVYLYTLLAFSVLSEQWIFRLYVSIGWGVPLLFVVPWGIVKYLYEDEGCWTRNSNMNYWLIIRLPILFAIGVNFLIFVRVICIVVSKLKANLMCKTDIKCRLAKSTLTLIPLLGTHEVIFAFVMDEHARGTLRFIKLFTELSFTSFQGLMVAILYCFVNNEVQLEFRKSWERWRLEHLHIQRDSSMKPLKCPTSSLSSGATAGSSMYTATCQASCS

Q: With `CC[C@H](C)[C@H](NC(=O)[C@H](Cc1ccccc1)NC(=O)[C@H](CCC(=O)O)NC(=O)[C@H](CCCCN)NC(=O)[C@H](C)NC(=O)[C@H](C)NC(=O)[C@H](CCC(N)=O)NC(=O)CNC(=O)[C@H](CCC(=O)O)NC(=O)[C@H](CC(C)C)NC(=O)[C@H](Cc1ccc(O)cc1)NC(=O)[C@H](CO)NC(=O)[C@H](CO)NC(=O)[C@@H](NC(=O)[C@H](CC(=O)O)NC(=O)[C@H](CO)NC(=O)[C@@H](NC(=O)[C@H](Cc1ccccc1)NC(=O)[C@@H](NC(=O)CNC(=O)[C@H](CCC(=O)O)NC(=O)[C@H](C)NC(=O)[C@@H](N)Cc1c[nH]cn1)[C@@H](C)O)[C@@H](C)O)C(C)C)C(=O)N[C@@H](C)C(=O)N[C@@H](Cc1c[nH]c2ccccc12)C(=O)N[C@@H](CC(C)C)C(=O)N[C@H](C(=O)N[C@@H](CCCCN)C(=O)NCC(=O)N[C@@H](CCCNC(=N)N)C(=O)NCCCCCC(=O)N[C@@H](CSC1CC(=O)N(CCNC(=O)CN2CCN(CC(=O)O)CCN(CC(=O)O)CCN(CC(=O)O)CC2)C1=O)C(N)=O)C(C)C` (stereo partly drawn) (64Cu complex, metal not drawn) [L-GLP-1, [Ala^8]GLP-1-Ahx-Cys] as the molecule, how does the tissue uptake at 20 min (in vivo; % ID/g blood) read?
A: The tissue uptake at 20 min was 0.78 ± 0.14 %ID/g.

Q: And the tissue uptake at 1 h (in vivo; % ID/g blood)?
A: The tissue uptake at 1 h was 0.47 ± 0.03 %ID/g.

Q: And the tissue uptake at 4 h (in vivo; % ID/g blood)?
A: Its tissue uptake at 4 h is 0.62 ± 0.15 %ID/g.

Q: And the tissue uptake at 24 h (in vivo; % ID/g blood)?
A: Its tissue uptake at 24 h is 0.07 ± 0.07 %ID/g.

Q: What about the tissue uptake at 20 min (in vivo; % ID/g fat) of the same molecule?
A: The tissue uptake at 20 min was 0.35 ± 0.1 %ID/g.

Q: And the tissue uptake at 4 h (in vivo; % ID/g fat)?
A: Its tissue uptake at 4 h is 0.72 ± 0.57 %ID/g.

Q: What about the tissue uptake at 24 h (in vivo; % ID/g fat) of the same molecule?
A: The tissue uptake at 24 h was 0.01 ± 0.01 %ID/g.

Q: What about the tissue uptake at 20 min (in vivo; % ID/g heart) of the same molecule?
A: Its tissue uptake at 20 min is 0.39 ± 0.23 %ID/g.

Q: What about the tissue uptake at 1 h (in vivo; % ID/g heart) of the same molecule?
A: The tissue uptake at 1 h was 0.11 ± 0.1 %ID/g.

Q: And the tissue uptake at 4 h (in vivo; % ID/g heart)?
A: The tissue uptake at 4 h was 0.2 ± 0.06 %ID/g.

Q: What about the tissue uptake at 20 min (in vivo; % ID/g kidney) of the same molecule?
A: The tissue uptake at 20 min was 30.6 ± 6.76 %ID/g.

Q: And the tissue uptake at 1 h (in vivo; % ID/g kidney)?
A: The tissue uptake at 1 h was 34.3 ± 5.42 %ID/g.

Q: What about the tissue uptake at 4 h (in vivo; % ID/g kidney) of the same molecule?
A: Its tissue uptake at 4 h is 41.4 ± 4.98 %ID/g.

Q: What about the tissue uptake at 24 h (in vivo; % ID/g kidney) of the same molecule?
A: The tissue uptake at 24 h was 45.8 ± 2.94 %ID/g.

Q: What about the tissue uptake at 20 min (in vivo; % ID/g large int) of the same molecule?
A: Its tissue uptake at 20 min is 0.19 ± 0.1 %ID/g.

Q: What about the tissue uptake at 1 h (in vivo; % ID/g large int) of the same molecule?
A: Its tissue uptake at 1 h is 0.04 ± 0.04 %ID/g.

Q: And the tissue uptake at 4 h (in vivo; % ID/g large int)?
A: The tissue uptake at 4 h was 0.67 ± 0.47 %ID/g.

Q: And the tissue uptake at 24 h (in vivo; % ID/g large int)?
A: The tissue uptake at 24 h was 4.83 ± 1.16 %ID/g.

Q: And the tissue uptake at 20 min (in vivo; % ID/g liver)?
A: Its tissue uptake at 20 min is 1.13 ± 0.42 %ID/g.

Q: What about the tissue uptake at 1 h (in vivo; % ID/g liver) of the same molecule?
A: Its tissue uptake at 1 h is 2.03 ± 0.25 %ID/g.

Q: What about the tissue uptake at 4 h (in vivo; % ID/g liver) of the same molecule?
A: The tissue uptake at 4 h was 3.34 ± 0.58 %ID/g.

Q: What about the tissue uptake at 24 h (in vivo; % ID/g liver) of the same molecule?
A: The tissue uptake at 24 h was 1.43 ± 0.21 %ID/g.

Q: And the tissue uptake at 20 min (in vivo; % ID/g lung)?
A: The tissue uptake at 20 min was 1.92 ± 0.08 %ID/g.

Q: And the tissue uptake at 1 h (in vivo; % ID/g lung)?
A: Its tissue uptake at 1 h is 0.9 ± 0.14 %ID/g.

Q: What about the tissue uptake at 4 h (in vivo; % ID/g lung) of the same molecule?
A: The tissue uptake at 4 h was 1.02 ± 0.13 %ID/g.

Q: What about the tissue uptake at 24 h (in vivo; % ID/g lung) of the same molecule?
A: The tissue uptake at 24 h was 0.83 ± 0.18 %ID/g.

Q: And the tissue uptake at 20 min (in vivo; % ID/g muscle)?
A: The tissue uptake at 20 min was 0.12 ± 0.01 %ID/g.

Q: What about the tissue uptake at 24 h (in vivo; % ID/g muscle) of the same molecule?
A: Its tissue uptake at 24 h is 0.08 ± 0.1 %ID/g.

Q: And the tissue uptake at 20 min (in vivo; % ID/g pancreas)?
A: The tissue uptake at 20 min was 0.34 ± 0.14 %ID/g.

Q: What about the tissue uptake at 1 h (in vivo; % ID/g pancreas) of the same molecule?
A: The tissue uptake at 1 h was 0.11 ± 0.11 %ID/g.

Q: What about the tissue uptake at 4 h (in vivo; % ID/g pancreas) of the same molecule?
A: The tissue uptake at 4 h was 0.4 ± 0.56 %ID/g.

Q: And the tissue uptake at 24 h (in vivo; % ID/g pancreas)?
A: The tissue uptake at 24 h was 0.03 ± 0.06 %ID/g.

Q: What about the tissue uptake at 20 min (in vivo; % ID/g small int) of the same molecule?
A: Its tissue uptake at 20 min is 0.38 ± 0.21 %ID/g.

Q: What about the tissue uptake at 1 h (in vivo; % ID/g small int) of the same molecule?
A: The tissue uptake at 1 h was 0.45 ± 0.24 %ID/g.

Q: And the tissue uptake at 4 h (in vivo; % ID/g small int)?
A: The tissue uptake at 4 h was 0.93 ± 0.43 %ID/g.

Q: What about the tissue uptake at 24 h (in vivo; % ID/g small int) of the same molecule?
A: Its tissue uptake at 24 h is 0.42 ± 0.16 %ID/g.

Q: What about the tissue uptake at 20 min (in vivo; % ID/g spleen) of the same molecule?
A: The tissue uptake at 20 min was 0.28 ± 7 %ID/g.

Q: What about the tissue uptake at 1 h (in vivo; % ID/g spleen) of the same molecule?
A: The tissue uptake at 1 h was 0.18 ± 0.08 %ID/g.

Q: And the tissue uptake at 4 h (in vivo; % ID/g spleen)?
A: The tissue uptake at 4 h was 0.4 ± 0.35 %ID/g.

Q: What about the tissue uptake at 24 h (in vivo; % ID/g spleen) of the same molecule?
A: Its tissue uptake at 24 h is 0.38 ± 0.47 %ID/g.

Q: And the tissue uptake at 20 min (in vivo; % ID/g stomach)?
A: The tissue uptake at 20 min was 0.64 ± 0.28 %ID/g.

Q: And the tissue uptake at 1 h (in vivo; % ID/g stomach)?
A: The tissue uptake at 1 h was 0.46 ± 0.28 %ID/g.

Q: What about the tissue uptake at 4 h (in vivo; % ID/g stomach) of the same molecule?
A: Its tissue uptake at 4 h is 0.5 ± 0.15 %ID/g.

Q: What about the tissue uptake at 24 h (in vivo; % ID/g stomach) of the same molecule?
A: The tissue uptake at 24 h was 0.11 ± 0.04 %ID/g.

Q: With `CC[C@H](C)[C@H](NC(=O)[C@H](Cc1ccccc1)NC(=O)[C@H](CCC(=O)O)NC(=O)[C@H](CCCCN)NC(=O)[C@H](C)NC(=O)[C@H](C)NC(=O)[C@H](CCC(N)=O)NC(=O)CNC(=O)[C@H](CCC(=O)O)NC(=O)[C@@H]1CCCCNC(=O)CC[C@H](NC(=O)[C@H](CC(=O)O)NC(=O)[C@H](CO)NC(=O)[C@@H](NC(=O)[C@H](Cc2ccccc2)NC(=O)[C@@H](NC(=O)CNC(=O)[C@H](CCC(=O)O)NC(=O)[C@@H](C)NC(=O)[C@@H](N)Cc2c[nH]cn2)[C@@H](C)O)[C@@H](C)O)C(=O)N[C@@H](CO)C(=O)N[C@@H](CO)C(=O)N[C@@H](Cc2ccc(O)cc2)C(=O)N1)C(=O)N[C@H]1CCC(=O)NCCCC[C@@H](C(=O)NCC(=O)N[C@@H](CCCNC(=N)N)C(=O)NCCCCCC(=O)N[C@@H](CSC2CC(=O)N(CCNC(=O)CN3CCN(CC(=O)O)CCN(CC(=O)O)CCN(CC(=O)O)CC3)C2=O)C(N)=O)NC(=O)[C@H](C(C)C)NC(=O)[C@H](CC(C)C)NC(=O)[C@H](Cc2c[nH]c3ccccc23)NC1=O` (stereo partly drawn) [EM2196, HXEGTFTSDESSYKEGQAAKEFIEWLVKG R, wherein X is D-Ala] (H-H[dA]EGTFTSDESSYKEGQAAKEFIEWLVKGR[Ahx]C(X1)-NH2; lactam 10-14, 24-28) as the molecule, how does the EC50 (GLP-1R) read?
A: The EC50 was roughly 1 nM.

Reference: patent US8992886B2, “Cyclic peptide analogues for non-invasive imaging of pancreatic beta-cells” (Board of Regents, the University of Texas System, priority 2009, dated 2015)
